Assay results as given in the DeepSol protein solubility set.

assay: soluble on expression in E. coli; label from the status in PepcDB or PDB records

Sequence | soluble on expression in E. coli
MTNIIKIRASVFIPMSWTEAKMDMETGQVIQFEGDSREFTPHAVNTMRSRVEQEVVVDFYKQEVFSYANTGITTEKVISPDGSVNKRTGKASTENIVCTDIVWNSGGVQFKMSASASNPLNVYAPPVDYVLNVCVKKDGSIDVQGEHDGFPCFEFYKQVDFGPFEKIYTHDFRETGDTAAALGGNMDYSFTKRL | soluble
MTNIRVAIVGYGNLGRSVEKLIAKQPDMDLVGIFSRRATLDTKTPVFDVADVDKHADDVDVLFLCMGSATDIPEQAPKFAQFACTVDTYDNHRDIPRHRQVMNEAATAAGNVALVSTGWDPGMFSINRVYAAAVLAEHQQHTFWGPGLSQGHSDALRRIPGVQKAVQYTLPSEDALEKARRGEAGDLTGKQTHKRQCFVVADAADHERIENDIRTMPDYFVGYEVEVNFIDEATFDSEHTGMPHGGHVITTGDTGGFNHTVEYILKLDRNPDFTASSQIAFGRAAHRMKQQGQSGAFTVLEVAPYLLSPENLDDLIARDV | soluble
MTNLTNYHSHCLYCDGRANMEDFIRFAISEGFSSYGISSHAPLPFSTAWTMEWDRMDDYLSEFARLKEKYADKIELAIGLEIDYLNEESHPAIPRFQELPLDYRIGSVHMLYSPQGKVVDIDTPADIFRQLIDAHFEGDLDYVVHLYYKNLLRMVELGGFDILGHADKMHYNASCYRPGLLDEPWYDALVRDYFAEIARHGYIVEINTKSYHDLGTFYPNERYFPLLKELGIRVQVNSDAHYPERINNSRAEALAALKKVGFDTVVEWHGGQWKDMPLLQ | not soluble
MTNNSGNKVQDIMTKNVATISPNQTVQEAAQIMSQKNIGALPVVENGQVKGMITDRDITLRVSSQGKDPSTVKVAEVMTNQVVTGTPNMSVQEAANVMAQHQVRRLPIVENNQLQGIVALGDIATNSASNEAAEQALTNISEPSQPQG | soluble
MTNRYVVIFTVGPVQSFIASARKTEDFWSGSYILSHLVREAIKRFYQFDANCEMIYPLVTEKELRSPSQRDVHIASIPNRLTVIMEGTEEEVCGWLREAEQDVCNVFLDFCFQAVRRVFPHLTDHEQELLERMVEQQVRSFLEIYWVAEPYEPSMSFREVRERAERRLGALKNEKHYIPVSQQGLVCSVCKEREALRLEEIGEFDHYGEIKKKTMSLWQRRAVKFQGTGGDEEDDRRAGRIKDNEFLCGICLGKRAARDYFADLFGTSFPSFPSVLDIGQGDYYAVLLMDGDDMGKWFSGERKDEYSRTSQKLARFAKETVPWIVQERCKGKLVYAGGDDVLAFVPVETALKAAEMLRLAFADERQGLGSGATASFGVVIAHKKAPLQHVLNAARALEQKAKRYYNDKTAQRKDALALAVHTRSGEISEAVLPWIVGEKMVSKLLEEWLGLLKTSLSPNFIFHFASAFAPLLHEKDCPKWENRDMLATELRRLLRRSVKEGSCLDAQDIARYTSTLLVLHEAVRSSYDFLHLLKMLTFFKRSKGRG | not soluble
MTNWKPLVSVITPSYNARDYIEDTVHSVLDQSHPHWEMIIVDDCSTDGTRDILQQYEKIDERIHVVYLEENSGAAVARNKALERAQGRYVAFLDSDDKWKKDKLEKQLEFMMERSCAFSFTGYSLMAQDGTPLDKFIHAPESLTYDDALKNTIIGCLTVMIDREQTGQIQMPNIRTRQDLATWLSLLKKGFTAYGMNECLAEYRLVNNSISSNKWKAAKKTWFVYREIERLHFMKATWCFVQYAKNAVKKRL | soluble
MTPLRVFRKTTPLVNTIRLSLLPLAGLSFSAFAAQVNIAPGSLDKALNQYAAHSGFTLSVDASLTRGKQSNGLHGDYDVESGLQQLLDGSGLQVKPLGNNSWTLEPAPAPKEDALTVVGDWLGDARENDVFEHAGARDVIRREDFAKTGATTMREVLNRIPGVSAPENNGTGSHDLAMNFGIRGLNPRLASRSTVLMDGIPVPFAPYGQPQLSLAPVSLGNMDAIDVVRGGGAVRYGPQSVGGVVNFVTRAIPQDFGIEAGVEGQLSPTSSQNNPKETHNLMVGGTADNGFGTALLYSGTRGSDWREHSATRIDDLMLKSKYAPDEVHTFNSLLQYYDGEADMPGGLSRADYDADRWQSTRPYDRFWGRRKLASLGYQFQPDSQHKFNIQGFYTQTLRSGYLEQGKRITLSPRNYWVRGIEPRYSQIFMIGPSAHEVGVGYRYLNESTHEMRYYTATSSGQLPSGSSPYDRDTRSGTEAHAWYLDDKIDIGNWTITPGMRFEHIESYQNNAITGTHEEVSYNAPLPALNVLYHLTDSWNLYANTEGSFGTVQYSQIGKAVQSGNVEPEKARTWELGTRYDDGALTAEMGLFLINFNNQYDSNQTNDTVTARGKTRHTGLETQARYDLGTLTPTLDNVSIYASYAYVNAEIREKGDTYGNLVPFSPKHKGTLGVDYKPGNWTFNLNSDFQSSQFADNANTVKESADGSTGRIPGFMLWGARVAYDFGPQMADLNLAFGVKNIFDQDYFIRSYDDNNKGIYAGQPRTLYMQGSLKF | soluble
MTPPPADDTSGKSGRRTELLDIAATLFAERGLRATTVRDIADAAGILSGSLYHHFDSKESMVDEILRGFLDDLFGKYREIVASGLDSRATLEALVTTSYEAIDASHSAVAIYQDEVKHLVANERFTYLSELNTEFRELWMGVLEAGVKDGSFRSDIDVELAFRFLRDTAWVAVRWYRPGGSVTVDTVAKQYLSIVLDGLASPHN | soluble
MTPPRVLSIAGSDSGGGAGIQADMRTMALLGVHACVAVTAVTVQNTLGVKDIHEVPNDVVAGQIEAVVTDIGVQAAKTGMLASSRIVATVAATWRRLELSVPLVVDPVCASMHGDPLLAPSALDSLRGQLFPLATLLTPNLDEARLLVDIEVVDAESQRAAAKALHALGPQWVLVKGGHLRSSDGSCDLLYDGVSCYQFDAQRLPTGDDHGGGDTLATAIAAALAHGFTVPDAVDFGKRWVTECLRAAYPLGRGHGPVSPLFRLS | not soluble
MTPWLTVVGIGEDGFSGLGKQARRALLGAGRVFGSPRQLALLPRCVTAEQLAWPSPFSLAPVLALRGEPVCVLASGDPMFYGVGASLARQVPAAEMRVLSLPSSCALAAARLGWPLQDLQVVSLVARPLAALNAHLHSGMRLLVLSNDGDSPAAIAAQLRGQGFGPSRLQVFEHLGGVDERALAGTAQDWPHTGIAALNLVAIECLATPDAPRLHRLAGLPDAAYRHDGQLTKRDVRAITLARLAPQPGELLWDVGAGCGSIGIEWMRAHPACRALAIEADEGRQGLIEHNRDALGVPGLQLVRGKAPAALQGLEQPDAIFIGGGVTRTGVLDLCWASLRPGGRLVANAVTLQSELALAHFREQHGGELTRIHVAHAQPLGAFDTWRQALPITLLEVLKPADA | not soluble
MTQDRPLLAVQEALKKCFPVVEEQQGLWQSALRDCQPLLSSLSNLAEQLQAAQNLRFEDVPALRAFPDLKERLRQPSSSRCETWSAAMWSECFRSMSNTQTQLALMLSCSLQQ | soluble
MTQDYRVLLYYQYVPIEDGETFAQKHLADCKELGLKGRILVADEGINGTVSGTIEQTNAYMELMKNDPRFSSTIFKIDEAEQNAFKKMHVRYRPELVNLSLEDDVNPLELTGAYLDPKEFREAMLDENTVVIDARNDYEFDLGHFRGAIRPEIRSFRELPQWIRDNKEQFMEKRVLTYCTGGIRCEKFSGWLVREGFKDVGQLHGGIATYGKDPEVQGDLWDGQMYVFDSRIAVPINQKEHVIVGRDWFDGSPCERYINCGNPECNRQMLASEENEAKYLGACSHECRVHPNNRYIKAHQLSNQEVQERLALLEKDLASLEHHHHHH | soluble
MTQPELTPAQRTEVELLARGRADKSRVLRDLKLPETPEAAHALLLRLGVWDEARTPYADRLRAALNAVELPVPDFDPAEERLDLTHLPTFAIDDEGNQDPDDAVGVEDLGGGLTRLWVHVADVAALVAPDSPLDLEARARGATLYLPDRTIGMLPDELVAKAGLGLHEVSPALSICLDLDPDGNAEAVDVLLTRVKVQRLAYQEAQARLEAGEEPFVTLARLARASRRLREGEGALSIDLPEVRVKADETGASVFPLPKPEMRTVVQECMTLAGWGTAIFADDNEIPLPFATQDYPTREVAGDTLPAMWARRKTLARTRFQPSPGPHHGMGLDLYAQATSPMRRYLDLVVHQQLRAFLAGRDPLSSKVMAAHIAESQMNADATRQAERLSRRHHTLRFIAAQPERVWDAVVVDRRGAQATLLIPDLAFDVQVNTPAAPGTALQVQFADIDLPQMRVRARSVLEHHHHHH | soluble
MTQPLRQYREKRDFRATAEPAGAARRPRAAARASEGLSFVIQRHQARRLHYDFRLEIDGVLVSWAVPKGPSRDPSVKRLAVHVEDHPLEYGGFSGDIPKGQYGAGHVDIWDSGVWIPRGDPRQGLRRGKLHFALRGRRLAGDWVLVRMSGEQDQWLLRKEDDEALEHHHHHH | soluble
MTQQHPHLLEPELGEFLTALKNTPSRLTARTAAWLCIWTASRPGMVRLAEWKEFDLDKATWTTPAAKMKMRRDFVCPLPHQAIAALKELHCLTGRSRWLFPGVGAKNPTISENTINKVFATIGYKGRLVGHGTRHTASTLLREHGWPKEHVEAQLAHKEEGLEHHHHHH | not soluble
MTQTQPVGTLRLTIDDQGPQGQSRAVEQFHQGALRVIRPHYLDDSGQVCYTIIAIGGGYLGGDVYEQQFTIKDNAKALITTQSATKIYRTPQGPATQHTEINVGENAVLEYLADQTIAYREATYHQFTKVALHPSATFVMSEQITPGWHPDGKHFAYDEMRLHTEITDSTTGRLVLLDNLLLRPDSREGSFGWTEQYTHSGQMIVMGEGVDKQLVAELNEQLAAHPDVYGAVNFLSAPGTLLRGFIARTLSNRTEELINLHEHIASLLRGRWRGQEPVNLRKYLEHHHHHH | not soluble
MTREIIPILPEAPVETARSGNALPLLREIAEHLHHLLETGEASTIDLSALPLTPGDLEWLRAELGGGEVSVTLHADGASTLDETAFPGVWWIIHRNAQGAVTTQFIEVAFVPELVKSPRADVAAARAALVLRMADL | soluble
MTRMKYLVAAATLSLFLAGCSGSKEEVPDNPPNEIYATAQQKLQDGNWKQAITQLEALDNRYPFGPYSQQVQLDLIYAYYKNADLPLAQAAIDRFMRLNPTHPNIDYVMYMRGLTNMALDDSALQGFFGVDRSDRDPQHARAAFNDFSKLVRSYPNSQYTTDATKRLVFLKDRLAKYEYSVAEYYTARGAWVAVVNRVEGMLRNYPDTQATRDALPLMENAYRQMQLNAQADKVAKIIAANSKNT | not soluble
MTRPFNRVHLIVMDSVGIGEAPDAADFKDEGSHTLRHTLEGFDQTLPNLEKLGLGNIDKLPVVNAVEQPEAYYTKLSEASVGKDTMTGHWEIMGLNIMQPFKVYPNGFPEELIQQIEEMTGRKVVANKPASGTQIIDEWGEHQMKTGDLIVYTSADPVLQIAAHEDIIPLEELYDICEKVRELTKDPKYLIGRIIARPYVGEPGNFTRTSNRHDYALKPFGKTVLDHLKDGGYDVIAIGKINDIYDGEGVTEAVRTKSNMDGMDQLMKIVKKDFTGISFLNLVDFDALYGHRRDKPGYAQAIKDFDDRLPELFSNLKEDDLVIITADHGNDPTAPGTDHTREYIPVIMYSPKFKGGHALESDTTFSSIGATIADNFNVTLPEFGKSYLKELK | not soluble
MTRQERILQLPFFENKRELAEQVLKMEREEHVYLPDQFEIKQVPPYSFAEKEAIIGRIHEFYFVSIGSDGAWKYQLFKDEMKCREFFVTLSGITDQQIAFWFNNIELLKGA | not soluble
